Assay results reported in publication PMC5161705.

Legend:
[1] = biological target: MBP^V8G/Y283D (E. coli) [MBP: P0AEX9]; assay: ITC
[2] = biological target: biotin-labeled MBP (E. coli) [MBP: P0AEX9]; assay: BLI

Chain of SecB (P0AG86 whole entry): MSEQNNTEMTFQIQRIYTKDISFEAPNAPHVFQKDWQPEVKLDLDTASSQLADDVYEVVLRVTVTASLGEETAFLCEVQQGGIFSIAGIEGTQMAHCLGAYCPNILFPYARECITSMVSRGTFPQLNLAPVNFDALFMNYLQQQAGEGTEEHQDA
Chain of Trigger Factor (TF) (P0A850 whole entry): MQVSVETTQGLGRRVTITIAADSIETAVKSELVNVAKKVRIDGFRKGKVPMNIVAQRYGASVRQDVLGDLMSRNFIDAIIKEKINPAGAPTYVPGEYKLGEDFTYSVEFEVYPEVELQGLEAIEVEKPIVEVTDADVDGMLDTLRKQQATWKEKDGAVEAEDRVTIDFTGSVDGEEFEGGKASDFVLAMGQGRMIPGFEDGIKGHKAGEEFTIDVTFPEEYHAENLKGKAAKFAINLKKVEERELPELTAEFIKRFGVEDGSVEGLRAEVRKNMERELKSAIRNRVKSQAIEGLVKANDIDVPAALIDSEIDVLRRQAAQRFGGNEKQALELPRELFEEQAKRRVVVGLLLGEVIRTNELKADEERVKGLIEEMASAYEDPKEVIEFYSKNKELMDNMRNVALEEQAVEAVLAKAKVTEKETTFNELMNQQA

**Q.** “SecB (from UniProt P0AG86 1-155) (natural protein)” was tested. Which Kd [1] did it give?
**A.** 50 mM

**Q.** What about the koff [2] of the same substance?
**A.** 0.01 s⁻¹

**Q.** Which koff [2] does the source give for “Trigger Factor (TF) (from UniProt P0A850 1-432) (natural protein)” here?
**A.** 0.05 s⁻¹
